Data from patent US20080311130A1 (IMMUNE DISEASE INSTITUTE, published 2008).

B1: αL I domain clone m7 (F292S), yeast-displayed (receptor)
chain: NVDLVFLFDGSMSLQPDEFQKILDFMKDVMKKLSNTSYQFAAVQFSTSYKTEFDFSDYVKWKDPDALLKHVKHMLLLTNTFGAINYVATEVFREELGARPDATKVLIIITDGEATDSGNIDAAKDIIRYIIGIGKHFQTKESQETLHKFASKPASEFVKILDTSEKLKDLFTELQKKIYVIEGTSKQDLT
notes: yeast surface display; not shown: Aga2, linker and hemagglutinin tag of pCTCON; c-myc tag
B2: αL I domain clone f2 (L289G), yeast-displayed (receptor)
chain: NVDLVFLFDGSMSLQPDEFQKILDFMKDVMKKLSNTSYQFAAVQFSTSYKTEFDFSDYVKWKDPDALLKHVKHMLLLTNTFGAINYVATEVFREELGARPDATKVLIIITDGEATDSGNIDAAKDIIRYIIGIGKHFQTKESQETLHKFASKPASEFVKIGDTFEKLKDLFTELQKKIYVIEGTSKQDLT
notes: as for B1
B3: αL I domain clone f3 (L289P), yeast-displayed (receptor)
chain: NVDLVFLFDGSMSLQPDEFQKILDFMKDVMKKLSNTSYQFAAVQFSTSYKTEFDFSDYVKWKDPDALLKHVKHMLLLTNTFGAINYVATEVFREELGARPDATKVLIIITDGEATDSGNIDAAKDIIRYIIGIGKHFQTKESQETLHKFASKPASEFVKIPDTFEKLKDLFTELQKKIYVIEGTSKQDLT
notes: as for B1
B4: αL I domain clone f4 (L289W), yeast-displayed (receptor)
chain: NVDLVFLFDGSMSLQPDEFQKILDFMKDVMKKLSNTSYQFAAVQFSTSYKTEFDFSDYVKWKDPDALLKHVKHMLLLTNTFGAINYVATEVFREELGARPDATKVLIIITDGEATDSGNIDAAKDIIRYIIGIGKHFQTKESQETLHKFASKPASEFVKIWDTFEKLKDLFTELQKKIYVIEGTSKQDLT
notes: as for B1
B5: αL I domain clone f5 (F292A), yeast-displayed (receptor)
chain: NVDLVFLFDGSMSLQPDEFQKILDFMKDVMKKLSNTSYQFAAVQFSTSYKTEFDFSDYVKWKDPDALLKHVKHMLLLTNTFGAINYVATEVFREELGARPDATKVLIIITDGEATDSGNIDAAKDIIRYIIGIGKHFQTKESQETLHKFASKPASEFVKILDTAEKLKDLFTELQKKIYVIEGTSKQDLT
notes: as for B1
B6: αL I domain clone f6 (F292G), yeast-displayed (receptor)
chain: NVDLVFLFDGSMSLQPDEFQKILDFMKDVMKKLSNTSYQFAAVQFSTSYKTEFDFSDYVKWKDPDALLKHVKHMLLLTNTFGAINYVATEVFREELGARPDATKVLIIITDGEATDSGNIDAAKDIIRYIIGIGKHFQTKESQETLHKFASKPASEFVKILDTGEKLKDLFTELQKKIYVIEGTSKQDLT
notes: as for B1
B7: αL I domain clone f7 (F292P), yeast-displayed (receptor)
chain: NVDLVFLFDGSMSLQPDEFQKILDFMKDVMKKLSNTSYQFAAVQFSTSYKTEFDFSDYVKWKDPDALLKHVKHMLLLTNTFGAINYVATEVFREELGARPDATKVLIIITDGEATDSGNIDAAKDIIRYIIGIGKHFQTKESQETLHKFASKPASEFVKILDTPEKLKDLFTELQKKIYVIEGTSKQDLT
notes: as for B1
B8: αL I domain clone f8 (L295A), yeast-displayed (receptor)
chain: NVDLVFLFDGSMSLQPDEFQKILDFMKDVMKKLSNTSYQFAAVQFSTSYKTEFDFSDYVKWKDPDALLKHVKHMLLLTNTFGAINYVATEVFREELGARPDATKVLIIITDGEATDSGNIDAAKDIIRYIIGIGKHFQTKESQETLHKFASKPASEFVKILDTFEKAKDLFTELQKKIYVIEGTSKQDLT
notes: as for B1
B9: αL I domain clone f9 (L295P), yeast-displayed (receptor)
chain: NVDLVFLFDGSMSLQPDEFQKILDFMKDVMKKLSNTSYQFAAVQFSTSYKTEFDFSDYVKWKDPDALLKHVKHMLLLTNTFGAINYVATEVFREELGARPDATKVLIIITDGEATDSGNIDAAKDIIRYIIGIGKHFQTKESQETLHKFASKPASEFVKILDTFEKPKDLFTELQKKIYVIEGTSKQDLT
notes: as for B1
B10: αL I domain clone f10 (L295Q), yeast-displayed (receptor)
chain: NVDLVFLFDGSMSLQPDEFQKILDFMKDVMKKLSNTSYQFAAVQFSTSYKTEFDFSDYVKWKDPDALLKHVKHMLLLTNTFGAINYVATEVFREELGARPDATKVLIIITDGEATDSGNIDAAKDIIRYIIGIGKHFQTKESQETLHKFASKPASEFVKILDTFEKQKDLFTELQKKIYVIEGTSKQDLT
notes: as for B1
B11: αL I domain clone f11 (L295W), yeast-displayed (receptor)
chain: NVDLVFLFDGSMSLQPDEFQKILDFMKDVMKKLSNTSYQFAAVQFSTSYKTEFDFSDYVKWKDPDALLKHVKHMLLLTNTFGAINYVATEVFREELGARPDATKVLIIITDGEATDSGNIDAAKDIIRYIIGIGKHFQTKESQETLHKFASKPASEFVKILDTFEKWKDLFTELQKKIYVIEGTSKQDLT
notes: as for B1
B12: αL I domain clone m1 (I258T), yeast-displayed (receptor)
chain: NVDLVFLFDGSMSLQPDEFQKILDFMKDVMKKLSNTSYQFAAVQFSTSYKTEFDFSDYVKWKDPDALLKHVKHMLLLTNTFGAINYVATEVFREELGARPDATKVLIIITDGEATDSGNIDAAKDIIRYTIGIGKHFQTKESQETLHKFASKPASEFVKILDTFEKLKDLFTELQKKIYVIEGTSKQDLT
notes: as for B1
B13: αL I domain clone m2 (I258T, T267A, F277A), yeast-displayed (receptor)
chain: NVDLVFLFDGSMSLQPDEFQKILDFMKDVMKKLSNTSYQFAAVQFSTSYKTEFDFSDYVKWKDPDALLKHVKHMLLLTNTFGAINYVATEVFREELGARPDATKVLIIITDGEATDSGNIDAAKDIIRYTIGIGKHFQAKESQETLHKAASKPASEFVKILDTFEKLKDLFTELQKKIYVIEGTSKQDLT
notes: as for B1
B14: αL I domain clone m3 (G262E), yeast-displayed (receptor)
chain: NVDLVFLFDGSMSLQPDEFQKILDFMKDVMKKLSNTSYQFAAVQFSTSYKTEFDFSDYVKWKDPDALLKHVKHMLLLTNTFGAINYVATEVFREELGARPDATKVLIIITDGEATDSGNIDAAKDIIRYIIGIEKHFQTKESQETLHKFASKPASEFVKILDTFEKLKDLFTELQKKIYVIEGTSKQDLT
notes: as for B1
B15: αL I domain clone m4 (F134L, K252E, F265S), yeast-displayed (receptor)
chain: NVDLVLLFDGSMSLQPDEFQKILDFMKDVMKKLSNTSYQFAAVQFSTSYKTEFDFSDYVKWKDPDALLKHVKHMLLLTNTFGAINYVATEVFREELGARPDATKVLIIITDGEATDSGNIDAAEDIIRYIIGIGKHSQTKESQETLHKFASKPASEFVKILDTFEKLKDLFTELQKKIYVIEGTSKQDLT
notes: as for B1
B16: αL I domain clone m5 (L274I, S279T), yeast-displayed (receptor)
chain: NVDLVFLFDGSMSLQPDEFQKILDFMKDVMKKLSNTSYQFAAVQFSTSYKTEFDFSDYVKWKDPDALLKHVKHMLLLTNTFGAINYVATEVFREELGARPDATKVLIIITDGEATDSGNIDAAKDIIRYIIGIGKHFQTKESQETIHKFATKPASEFVKILDTFEKLKDLFTELQKKIYVIEGTSKQDLT
notes: as for B1
B17: αL I domain clone m5a (L274I), yeast-displayed (receptor)
chain: NVDLVFLFDGSMSLQPDEFQKILDFMKDVMKKLSNTSYQFAAVQFSTSYKTEFDFSDYVKWKDPDALLKHVKHMLLLTNTFGAINYVATEVFREELGARPDATKVLIIITDGEATDSGNIDAAKDIIRYIIGIGKHFQTKESQETIHKFASKPASEFVKILDTFEKLKDLFTELQKKIYVIEGTSKQDLT
notes: as for B1
B18: αL I domain clone m6 (F209Y, L289P), yeast-displayed (receptor)
chain: NVDLVFLFDGSMSLQPDEFQKILDFMKDVMKKLSNTSYQFAAVQFSTSYKTEFDFSDYVKWKDPDALLKHVKHMLLLTNTYGAINYVATEVFREELGARPDATKVLIIITDGEATDSGNIDAAKDIIRYIIGIGKHFQTKESQETLHKFASKPASEFVKIPDTFEKLKDLFTELQKKIYVIEGTSKQDLT
notes: as for B1
B19: αL I domain clone m8 (F292S, P281E), yeast-displayed (receptor)
chain: NVDLVFLFDGSMSLQPDEFQKILDFMKDVMKKLSNTSYQFAAVQFSTSYKTEFDFSDYVKWKDPDALLKHVKHMLLLTNTFGAINYVATEVFREELGARPDATKVLIIITDGEATDSGNIDAAKDIIRYIIGIGKHFQTKESQETLHKFASKEASEFVKILDTSEKLKDLFTELQKKIYVIEGTSKQDLT
notes: as for B1
B20: αL I domain clone m9 (F292S, Y177R, L204Q), yeast-displayed (receptor)
chain: NVDLVFLFDGSMSLQPDEFQKILDFMKDVMKKLSNTSYQFAAVQFSTSRKTEFDFSDYVKWKDPDALLKHVKHMLQLTNTFGAINYVATEVFREELGARPDATKVLIIITDGEATDSGNIDAAKDIIRYIIGIGKHFQTKESQETLHKFASKPASEFVKILDTSEKLKDLFTELQKKIYVIEGTSKQDLT
notes: as for B1
B21: αL I domain clone m10 (F265L, E293G, K294E, K296E, V308I), yeast-displayed (receptor)
chain: NVDLVFLFDGSMSLQPDEFQKILDFMKDVMKKLSNTSYQFAAVQFSTSYKTEFDFSDYVKWKDPDALLKHVKHMLLLTNTFGAINYVATEVFREELGARPDATKVLIIITDGEATDSGNIDAAKDIIRYIIGIGKHLQTKESQETLHKFASKPASEFVKILDTFGELEDLFTELQKKIYIIEGTSKQDLT
notes: as for B1
B22: αL I domain clone m11 (L295P, Q303R), yeast-displayed (receptor)
chain: NVDLVFLFDGSMSLQPDEFQKILDFMKDVMKKLSNTSYQFAAVQFSTSYKTEFDFSDYVKWKDPDALLKHVKHMLLLTNTFGAINYVATEVFREELGARPDATKVLIIITDGEATDSGNIDAAKDIIRYIIGIGKHFQTKESQETLHKFASKPASEFVKILDTFEKPKDLFTELRKKIYVIEGTSKQDLT
notes: as for B1

Target: T1, ICAM-1-Fcγ (ICAM-1 residues of 1-480 fused to the Fc of human IgG, R&D Systems) (human, UniProt P05362 28-480)
T1 construct: range 1-480; Bought (R&D Systems); also called ICAM-1-Fcγ chimera; not shown: Fc of human IgG
Experiment: flow cytometry on yeast-displayed I domain, ICAM-1-Fcγ 10 µg/ml
Procedure: Cells that were cultured only in SD-CAA or further induced in SG-CAA were harvested, washed with 100 μl of labeling buffer (PBS, 0.5% BSA, 10 mM MgCl₂), and then incubated with ligands at 10 μg/ml in 50 μl of the labeling buffer for 20 min with shaking at 30° C. in a 96-well V-bottom plate. Ligands used in this study were anti-c-myc antibody 9E10 (Santa Cruz Biotechnology, CA) and anti-hemagglutinin antibody 12CA5 (Roche Applied Science), αL I domain-specific antibodies TS1/22 and MEM83³², and ICAM-1-Fcγ (ICAM-1 residues of 1-480 fused to the Fc of human IgG, R&D Systems). After incubation with the primary ligands, cells were washed once in 100 μl of the labeling buffer and incubated with the fluorescence-conjugated secondary antibodies at 5 μg/ml in 50 μl of the labeling buffer for 20 min at 4° C. Finally, cells were washed once in 100 μl and suspended in 100 μl of the labeling buffer for flow cytometry (FACScan, BD Biosciences).
A total of twenty-five yeast colonies were picked from SD-CAA plates from the libraries selected with ICAM-1-Fcγ. These clones were tested for binding of ICAM-1-Fcγ, and sequenced (Table 1). Of these, 15 had unique sequences and were designated as m1 to m15, and all bound ICAM-1 better than wild-type (Table 1). Five clones contained single mutations, and the remainder contained 2-5 mutations each (Table 1). From the clones containing multiple mutations, one to three residues were selected and independently tested as a single substitution (designated with a, b, or c suffix) or independently isolated from the ratchet residue library (see below).

T1 sequence (P05362 28-480 limits assumed, form in doubt): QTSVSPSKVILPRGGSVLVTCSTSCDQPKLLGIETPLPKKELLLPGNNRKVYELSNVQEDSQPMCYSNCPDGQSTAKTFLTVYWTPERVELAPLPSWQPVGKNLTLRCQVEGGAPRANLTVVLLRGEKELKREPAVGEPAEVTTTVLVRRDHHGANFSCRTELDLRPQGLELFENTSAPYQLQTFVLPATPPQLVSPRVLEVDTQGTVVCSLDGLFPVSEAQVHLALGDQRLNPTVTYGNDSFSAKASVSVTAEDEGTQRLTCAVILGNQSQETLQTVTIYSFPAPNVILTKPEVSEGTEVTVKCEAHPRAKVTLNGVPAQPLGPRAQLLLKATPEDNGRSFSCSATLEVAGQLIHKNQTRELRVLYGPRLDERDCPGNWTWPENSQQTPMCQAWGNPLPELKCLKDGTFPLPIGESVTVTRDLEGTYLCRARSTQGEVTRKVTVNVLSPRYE

Binder | ICAM-1 (% ASFI of HA)
B1 | 47 % ASFI of HA
B2 | 74 % ASFI of HA
B3 | 24 % ASFI of HA
B4 | 51 % ASFI of HA
B5 | 29 % ASFI of HA
B6 | 91 % ASFI of HA
B7 | 5 % ASFI of HA
B8 | 25 % ASFI of HA
B9 | 5 % ASFI of HA
B10 | 4 % ASFI of HA
B11 | 81 % ASFI of HA
B12 | 10 % ASFI of HA
B13 | 10 % ASFI of HA
B14 | 4 % ASFI of HA
B15 | 31 % ASFI of HA
B16 | 51 % ASFI of HA
B17 | 91 % ASFI of HA
B18 | 33 % ASFI of HA
B19 | 54 % ASFI of HA
B20 | 28 % ASFI of HA
B21 | 16 % ASFI of HA
B22 | 107 % ASFI of HA
